Literature values, collected in publication PMC4525192 (European Journal of Nuclear Medicine and Molecular Imaging, 2014).

System: tumour
Details: intravenously administered

C[C@@H](O)[C@@H]1NC(=O)[C@H](CCCCN)NC(=O)[C@@H](Cc2c[nH]c3ccccc23)NC(=O)[C@H](Cc2ccc(O)cc2)NC(=O)[C@@H](NC(=O)[C@@H](Cc2ccccc2)NC(=O)CN2CCN(CC(=O)O)CCN(CC(=O)O)CCN(CC(=O)O)CC2)CSSC[C@@H](C(=O)N[C@H](CO)[C@@H](C)O)NC1=O [DOTATOC, (DOTA^0-Phe^1-Tyr^3) octreotide]
Time after injection at which 80 % of Umax is reached: 45 min
Time of tumoral accumulation maximum (Umax) after injection: about 70 min
